# B1: Histone-lysine N-methyltransferase SMYD1 (Homo sapiens), Q8NB12 (parent)
# chain: MTIGRMENVEVFTAEGKGRGLKATKEFWAADIIFAERAYSAVVFDSLVNFVCHTCFKRQEKLHRCGQCKFAHYCDRTCQKDAWLNHKNECSAIKRYGKVPNENIRLAARIMWRVEREGTGLTEGCLVSVDDLQNHVEHFGEEEQKDLRVDVDTFLQYWPPQSQQFSMQYISHIFGVINCNGFTLSDQRGLQAVGVGIFPNLGLVNHDCWPNCTVIFNNGNHEAVKSMFHTQMRIELRALGKISEGEELTVSYIDFLNVSEERKRQLKKQYYFDCTCEHCQKKLKDDLFLGVKDNPKPSQEVVKEMIQFSKDTLEKIDKARSEGLYHEVVKLCRECLEKQEPVFADTNIYMLRMLSIVSEVLSYLQAFEEASFYARRMVDGYMKLYHPNNAQLGMAVMRAGLTNWHAGNIEVGHGMICKAYAILLVTHGPSHPITKDLEAMRVQTEMELRMFRQNEFMYYKMREAALNNQPMQVMAEPSNEPSPALFHKKQ
# partner: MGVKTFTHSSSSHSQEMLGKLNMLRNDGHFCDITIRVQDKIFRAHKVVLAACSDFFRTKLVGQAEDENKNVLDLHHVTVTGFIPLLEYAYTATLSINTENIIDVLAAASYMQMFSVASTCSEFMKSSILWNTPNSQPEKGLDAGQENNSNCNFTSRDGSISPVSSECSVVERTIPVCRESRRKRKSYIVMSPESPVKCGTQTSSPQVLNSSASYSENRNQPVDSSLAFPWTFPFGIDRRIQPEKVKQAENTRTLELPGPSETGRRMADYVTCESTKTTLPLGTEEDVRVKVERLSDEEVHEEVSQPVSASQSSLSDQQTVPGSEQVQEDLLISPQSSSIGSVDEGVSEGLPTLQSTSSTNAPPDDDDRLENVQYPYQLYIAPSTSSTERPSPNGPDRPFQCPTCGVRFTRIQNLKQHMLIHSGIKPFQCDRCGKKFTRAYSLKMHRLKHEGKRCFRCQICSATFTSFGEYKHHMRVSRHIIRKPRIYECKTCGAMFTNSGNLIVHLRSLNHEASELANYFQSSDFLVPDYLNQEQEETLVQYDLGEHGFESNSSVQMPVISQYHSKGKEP
# B2: Keratin, type I cytoskeletal 20 (Homo sapiens), P35900 (parent)
# chain: MDFSRRSFHRSLSSSLQAPVVSTVGMQRLGTTPSVYGGAGGRGIRISNSRHTVNYGSDLTGGGDLFVGNEKMAMQNLNDRLASYLEKVRTLEQSNSKLEVQIKQWYETNAPRAGRDYSAYYRQIEELRSQIKDAQLQNARCVLQIDNAKLAAEDFRLKYETERGIRLTVEADLQGLNKVFDDLTLHKTDLEIQIEELNKDLALLKKEHQEEVDGLHKHLGNTVNVEVDAAPGLNLGVIMNEMRQKYEVMAQKNLQEAKEQFERQTAVLQQQVTVNTEELKGTEVQLTELRRTSQSLEIELQSHLSMKESLEHTLEETKARYSSQLANLQSLLSSLEAQLMQIRSNMERQNNEYHILLDIKTRLEQEIATYRRLLEGEDVKTTEYQLSTLEERDIKKTRKIKTVVQEVVDGKVVSSEVKEVEENI
# partner: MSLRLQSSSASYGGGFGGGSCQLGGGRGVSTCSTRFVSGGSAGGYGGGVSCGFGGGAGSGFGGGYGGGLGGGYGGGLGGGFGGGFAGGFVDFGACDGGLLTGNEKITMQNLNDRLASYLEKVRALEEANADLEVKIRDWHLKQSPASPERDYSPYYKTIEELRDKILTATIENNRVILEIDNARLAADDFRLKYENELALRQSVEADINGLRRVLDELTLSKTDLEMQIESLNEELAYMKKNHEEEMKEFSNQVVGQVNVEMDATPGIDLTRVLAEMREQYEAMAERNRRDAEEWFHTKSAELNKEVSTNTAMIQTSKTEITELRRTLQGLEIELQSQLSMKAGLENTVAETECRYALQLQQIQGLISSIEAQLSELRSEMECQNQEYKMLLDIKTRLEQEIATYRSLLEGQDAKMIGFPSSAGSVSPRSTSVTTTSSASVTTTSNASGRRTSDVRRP
# B3: Protein FAM13C (Homo sapiens), Q8NE31 (parent)
# chain: MFSCFCFSLQDNSFSSTTVTECDEDPVSLHEDQTDCSSLRDENNKENYPDAGALVEEHAPPSWEPQQQNVEATVLVDSVLRPSMGNFKSRKPKSIFKAESGRSHGESQETEHVVSSQSECQVRAGTPAHESPQNNAFKCQETVRLQPRIDQRTAISPKDAFETRQDLNEEEAAQVHGVKDPAPASTQSVLADGTDSADPSPVHKDGQNEADSAPEDLHSVGTSRLLYHITDGDNPLLSPRCSIFSQSQRFNLDPESAPSPPSTQQFMMPRSSSRCSCGDGKEPQTITQLTKHIQSLKRKIRKFEEKFEQEKKYRPSHGDKTSNPEVLKWMNDLAKGRKQLKELKLKLSEEQGSAPKGPPRNLLCEQPTVPRENGKPEAAGPEPSSSGEETPDAALTCLKERREQLPPQEDSKVTKQDKNLIKPLYDRYRIIKQILSTPSLIPTIQEEEDSDEDRPQGSQQPSLADPASHLPVGDHLTYSNETEPVRALLPDEKKEVKPPALSMSNLHEATMPVLLDHLRETRADKKRLRKALREFEEQFFKQTGRSPQKEDRIPMADEYYEYKHIKAKLRLLEVLISKQDVAKTI
# B4: Epidermal growth factor receptor substrate 15-like 1 (Homo sapiens), Q9UBC2 (parent)
# chain: MAAPLIPLSQQIPTGNSLYESYYKQVDPAYTGRVGASEAALFLKKSGLSDIILGKIWDLADPEGKGFLDKQGFYVALRLVACAQSGHEVTLSNLNLSMPPPKFHDTSSPLMVTPPSAEAHWAVRVEEKAKFDGIFESLLPINGLLSGDKVKPVLMNSKLPLDVLGRVWDLSDIDKDGHLDRDEFAVAMHLVYRALEKEPVPSALPPSLIPPSKRKKTVFPGAVPVLPASPPPKDSLRSTPSHGSVSSLNSTGSLSPKHSLKQTQPTVNWVVPVADKMRFDEIFLKTDLDLDGYVSGQEVKEIFMHSGLTQNLLAHIWALADTRQTGKLSKDQFALAMYFIQQKVSKGIDPPQVLSPDMVPPSERGTPGPDSSGSLGSGEFTGVKELDDISQEIAQLQREKYSLEQDIREKEEAIRQKTSEVQELQNDLDRETSSLQELEAQKQDAQDRLDEMDQQKAKLRDMLSDVRQKCQDETQMISSLKTQIQSQESDLKSQEDDLNRAKSELNRLQQEETQLEQSIQAGRVQLETIIKSLKSTQDEINQARSKLSQLHESRQEAHRSLEQYDQVLDGAHGASLTDLANLSEGVSLAERGSFGAMDDPFKNKALLFSNNTQELHPDPFQTEDPFKSDPFKGADPFKGDPFQNDPFAEQQTTSTDPFGGDPFKESDPFRGSATDDFFKKQTKNDPFTSDPFTKNPSLPSKLDPFESSDPFSSSSVSSKGSDPFGTLDPFGSGSFNSAEGFADFSQMSKPPPSGPFTSSLGGAGFSDDPFKSKQDTPALPPKKPAPPRPKPPSGKSTPVSQLGSADFPEAPDPFQPLGADSGDPFQSKKGFGDPFSGKDPFVPSSAAKPSKASASGFADFTSVS
# partner: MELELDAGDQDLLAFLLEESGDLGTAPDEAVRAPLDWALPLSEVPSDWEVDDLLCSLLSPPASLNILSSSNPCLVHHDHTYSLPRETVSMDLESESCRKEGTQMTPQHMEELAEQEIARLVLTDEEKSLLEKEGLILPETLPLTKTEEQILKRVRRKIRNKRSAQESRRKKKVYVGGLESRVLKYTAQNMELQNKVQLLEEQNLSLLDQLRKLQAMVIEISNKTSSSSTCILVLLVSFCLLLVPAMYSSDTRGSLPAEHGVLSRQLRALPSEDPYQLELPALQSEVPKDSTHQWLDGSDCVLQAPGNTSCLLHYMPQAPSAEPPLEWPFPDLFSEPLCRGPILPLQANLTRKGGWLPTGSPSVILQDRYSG
# B5: Pre-mRNA-splicing factor SPF27 (Homo sapiens), O75934 (parent)
# chain: MAGTGLVAGEVVVDALPYFDQGYEAPGVREAAAALVEEETRRYRPTKNYLSYLTAPDYSAFETDIMRNEFERLAARQPIELLSMKRYELPAPSSGQKNDITAWQECVNNSMAQLEHQAVRIENLELMSQHGCNAWKVYNENLVHMIEHAQKELQKLRKHIQDLNWQRKNMQLTAGSKLREMESNWVSLVSKNYEIERTIVQLENEIYQIKQQHGEANKENIRQDF
# B6: DNA mismatch repair protein Mlh1 (Homo sapiens), P40692 (parent)
# chain: MSFVAGVIRRLDETVVNRIAAGEVIQRPANAIKEMIENCLDAKSTSIQVIVKEGGLKLIQIQDNGTGIRKEDLDIVCERFTTSKLQSFEDLASISTYGFRGEALASISHVAHVTITTKTADGKCAYRASYSDGKLKAPPKPCAGNQGTQITVEDLFYNIATRRKALKNPSEEYGKILEVVGRYSVHNAGISFSVKKQGETVADVRTLPNASTVDNIRSIFGNAVSRELIEIGCEDKTLAFKMNGYISNANYSVKKCIFLLFINHRLVESTSLRKAIETVYAAYLPKNTHPFLYLSLEISPQNVDVNVHPTKHEVHFLHEESILERVQQHIESKLLGSNSSRMYFTQTLLPGLAGPSGEMVKSTTSLTSSSTSGSSDKVYAHQMVRTDSREQKLDAFLQPLSKPLSSQPQAIVTEDKTDISSGRARQQDEEMLELPAPAEVAAKNQSLEGDTTKGTSEMSEKRGPTSSNPRKRHREDSDVEMVEDDSRKEMTAACTPRRRIINLTSVLSLQEEINEQGHEVLREMLHNHSFVGCVNPQWALAQHQTKLYLLNTTKLSEELFYQILIYDFANFGVLRLSEPAPLFDLAMLALDSPESGWTEEDGPKEGLAEYIVEFLKKKAEMLADYFSLEIDEEGNLIGLPLLIDNYVPPLEGLPIFILRLATEVNWDEEKECFESLSKECAMFYSIRKQYISEESTLSGQQSEVPGSIPNSWKWTVEHIVYKALRSHILPPKHFTEDGNILQLANLPDLYKVFERC
# partner: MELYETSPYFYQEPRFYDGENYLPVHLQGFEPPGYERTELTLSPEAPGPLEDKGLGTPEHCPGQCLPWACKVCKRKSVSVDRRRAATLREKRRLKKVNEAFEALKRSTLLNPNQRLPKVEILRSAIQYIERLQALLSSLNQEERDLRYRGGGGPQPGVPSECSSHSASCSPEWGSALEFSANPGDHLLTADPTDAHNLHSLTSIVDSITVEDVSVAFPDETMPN
# Variants of: B1
# Conditions: with zbt44_human ZBTB44, Q8NCP5
row,Variant,effect of a mutation on the interaction
1,H427L,with no effect
2,Q164P,with no effect

# Variants of: B2
# Conditions: with KRT13, P13646
row,Variant,effect of a mutation on the interaction
1,S309Y,with no effect
2,S129N,with no effect

# Variants of: B3
# Conditions: with kif2a_human KIF2A
row,Variant,effect of a mutation on the interaction
1,K97R,with no effect

# Variants of: B3
# Conditions: with tfp11_human TFIP11, Q9UBB9
# tfp11_human TFIP11, Q9UBB9, sequence (Q9UBB9 whole entry): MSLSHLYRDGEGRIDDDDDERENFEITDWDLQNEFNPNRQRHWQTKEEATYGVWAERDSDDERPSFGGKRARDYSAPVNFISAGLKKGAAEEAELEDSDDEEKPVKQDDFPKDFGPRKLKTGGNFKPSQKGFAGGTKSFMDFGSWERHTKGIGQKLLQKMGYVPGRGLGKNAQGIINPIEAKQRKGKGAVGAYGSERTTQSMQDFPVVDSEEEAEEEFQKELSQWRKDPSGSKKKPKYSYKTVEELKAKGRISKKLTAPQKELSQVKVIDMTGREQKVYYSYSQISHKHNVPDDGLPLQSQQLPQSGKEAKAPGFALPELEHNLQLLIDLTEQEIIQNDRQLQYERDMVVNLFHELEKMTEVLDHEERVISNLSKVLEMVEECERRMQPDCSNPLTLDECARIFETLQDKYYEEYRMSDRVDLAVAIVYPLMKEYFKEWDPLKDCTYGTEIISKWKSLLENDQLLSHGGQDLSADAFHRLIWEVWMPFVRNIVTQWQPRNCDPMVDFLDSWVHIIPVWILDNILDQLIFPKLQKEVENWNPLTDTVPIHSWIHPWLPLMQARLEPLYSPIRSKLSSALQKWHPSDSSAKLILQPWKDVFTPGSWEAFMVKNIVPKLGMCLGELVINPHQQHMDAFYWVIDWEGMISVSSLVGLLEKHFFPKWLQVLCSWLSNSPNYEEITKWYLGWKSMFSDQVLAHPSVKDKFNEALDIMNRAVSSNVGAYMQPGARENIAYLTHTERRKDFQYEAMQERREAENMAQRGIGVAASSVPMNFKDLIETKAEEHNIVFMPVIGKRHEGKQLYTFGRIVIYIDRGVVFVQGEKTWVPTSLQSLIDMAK
row,Variant,effect of a mutation on the interaction
1,P147S,with no effect

# Variants of: B4
# Conditions: with creb3_human CREB3, O43889
row,Variant,effect of a mutation on the interaction
1,P356L,with no effect

# Variants of: B5
# Conditions: with itf2_human TCF4, P15884
# itf2_human TCF4, P15884, sequence (P15884 whole entry): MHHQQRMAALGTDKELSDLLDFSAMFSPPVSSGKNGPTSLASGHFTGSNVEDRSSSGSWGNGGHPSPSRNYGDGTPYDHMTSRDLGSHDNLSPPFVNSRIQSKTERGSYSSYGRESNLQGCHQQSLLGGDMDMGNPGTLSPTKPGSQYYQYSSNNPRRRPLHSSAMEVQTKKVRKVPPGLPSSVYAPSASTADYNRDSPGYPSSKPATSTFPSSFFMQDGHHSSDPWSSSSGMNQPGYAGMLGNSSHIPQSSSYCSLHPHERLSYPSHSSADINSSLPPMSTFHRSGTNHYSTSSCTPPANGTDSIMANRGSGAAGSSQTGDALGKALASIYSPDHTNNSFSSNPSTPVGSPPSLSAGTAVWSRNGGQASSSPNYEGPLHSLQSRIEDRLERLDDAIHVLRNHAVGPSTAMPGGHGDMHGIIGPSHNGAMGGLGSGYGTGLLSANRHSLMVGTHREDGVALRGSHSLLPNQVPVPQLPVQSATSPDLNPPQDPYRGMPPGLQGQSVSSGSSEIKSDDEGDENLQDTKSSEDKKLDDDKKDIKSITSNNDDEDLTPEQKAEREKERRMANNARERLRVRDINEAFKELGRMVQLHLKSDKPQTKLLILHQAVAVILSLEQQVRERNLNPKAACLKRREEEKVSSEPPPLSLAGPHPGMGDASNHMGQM
row,Variant,effect of a mutation on the interaction
1,N139S,with no effect

# Variants of: B5
# Conditions: with hgs_human HGS
row,Variant,effect of a mutation on the interaction
1,N139S,with no effect

# Variants of: B5
# Conditions: with ikzf3_human IKZF3, Q9UKT9
# ikzf3_human IKZF3, Q9UKT9, sequence (Q9UKT9 whole entry): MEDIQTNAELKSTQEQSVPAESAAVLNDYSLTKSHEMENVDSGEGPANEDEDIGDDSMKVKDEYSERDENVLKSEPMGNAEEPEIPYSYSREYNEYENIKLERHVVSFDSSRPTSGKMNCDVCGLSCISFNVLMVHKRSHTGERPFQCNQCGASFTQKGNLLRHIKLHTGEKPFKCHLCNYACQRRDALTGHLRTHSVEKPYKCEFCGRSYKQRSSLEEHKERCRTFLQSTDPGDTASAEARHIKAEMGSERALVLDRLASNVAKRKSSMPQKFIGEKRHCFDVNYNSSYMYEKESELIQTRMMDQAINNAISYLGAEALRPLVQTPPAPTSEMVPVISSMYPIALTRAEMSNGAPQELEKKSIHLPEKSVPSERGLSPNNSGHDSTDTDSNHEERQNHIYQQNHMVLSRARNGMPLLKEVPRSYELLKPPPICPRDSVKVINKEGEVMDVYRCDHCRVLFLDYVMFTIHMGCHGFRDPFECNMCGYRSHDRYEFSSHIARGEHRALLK
row,Variant,effect of a mutation on the interaction
1,N139S,with no effect

# Variants of: B6
# Conditions: with myog_human MYOG
row,Variant,effect of a mutation on the interaction
1,S406N,with no effect
2,V326A,with no effect
